# Results taken from FireProtDB (doi:10.1016/s0301-4622(00)00161-7).
# Where “and” joins values, the source holds several entries; their conditions need not be identical. Equal values may be shown once.
# Conditions: pH 7, Sodium phosphate 10 mM, whole UniProt chain shown
# [1] = Homo sapiens, 20 °C, Thermal, DSC
Protein,"denaturant midpoint (higher = more stable) (Homo sapiens, 20 °C, GdnHCl, CD)","denaturant midpoint (higher = more stable) (Homo sapiens, 20 °C, GdnHCl, Fluorescence)",heat capacity change of unfolding [1],unfolding free energy [1],"denaturant midpoint (higher = more stable) (Homo sapiens, 20 °C, Urea, CD)","denaturant midpoint (higher = more stable) (Homo sapiens, 20 °C, Urea, Fluorescence)","heat capacity change of unfolding (Homo sapiens, Thermal, DSC)","unfolding enthalpy (calorimetric) (Homo sapiens, Thermal, DSC)","denaturant midpoint (higher = more stable) (Bos taurus, 20 °C, GdnHCl, Fluorescence)","denaturant midpoint (higher = more stable) (Bos taurus, 20 °C, Urea, Fluorescence)"
"Gamma-crystallin S wild type, P22914 (protein) MSKTGTKITFYEDKNFQGRRYDCDCDCADFHTYLSRCNSIKVEGGTWAVYERPNFAGYMYILPQGEYPEYQRWMGLNDRLSSCRAVHLPSGGQYKIQIFEKGDFSGQMYETTEDCPSIMEQFHMREIHSCKVLEGVWIFYELPNYRGRQYLLDKKEYRKPIDWGAASPAVQSFRRIVE",1.9 M,2.6 M and 2.5 M,1.79 kcal/mol/K and 0.84 kcal/mol/K and 1.08 kcal/mol/K,20.1 kcal/mol and 10 kcal/mol and 11.5 kcal/mol,7 M,8 M and 7.6 M,1.79 kcal/mol/K and 0.84 kcal/mol/K and 1.08 kcal/mol/K,179 kcal/mol and 90.8 kcal/mol and 103 kcal/mol,–,–
"Gamma-crystallin S wild type, P06504 (protein) MSKAGTKITFFEDKNFQGRHYDSDCDCADFHMYLSRCNSIRVEGGTWAVYERPNFAGYMYILPRGEYPEYQHWMGLNDRLSSCRAVHLSSGGQYKLQIFEKGDFNGQMHETTEDCPSIMEQFHMREVHSCKVLEGAWIFYELPNYRGRQYLLDKKEYRKPVDWGAASPAVQSFRRIVE",–,–,–,–,–,–,–,–,2.1 M and 1.8 M,7 M and 6.6 M
